B1: antibody 4935 (antibody, human IgG1, kappa, V domains shown)
VH: QIQLVQSGPELVKPGASVRISCKASGYTFTSYYIHWVKQRPGQGLEWIGWIYPGNVHTKYTEKFKGKATLTADKSSSTAYMHLSSLTSEDSAVYFCVRRYGYDGDWFAYWGQGTLVTVSS
VL: DIQMTQSPASLAVSLGQRATISCRASESVDSYGNTFMHWYQQKPGQPPKLLIYRASNLESGIPARFSGSGSRTDFTLTINPVEADDVATYYCQQSNEDPWTFGGGTKLEIKR
notes: Chimeric: murine variable regions, human kappa constant region, expressed as full-length IgG
B2: antibody 5259 (antibody, human IgG1, kappa, V domains shown)
VH: EVQLVESGPGLVAPSQSLSITCTVSGFSLSRYTIHWVRQPPGKGLEWLGMIWGGGSTDYNSALKSRLSISKDNSKSQLFLKMNSLQTDDTAIYYCARKGITTTGFDYWGQGTTLTVSS
VL: NIVLTQSPAIMSASPGEKVTMTCSASSSVSYMFWYQQKPGSSPRLLIYDTSNLASGVPVRFSGSGSGTSYSLTISRMEAEDAATYYCQQLNSYPPTFGGGTKLEIKR
notes: as for B1
B3: antibody 5144 (antibody, human IgG1, kappa, V domains shown)
VH: QVQLKESGPGLVAPSQSLSITCTVSGFSLSRYSVHWVRQPPGKGLEWLGMIWGGGSTDYNSALKSRLNINKDNSKSQVFFKMNSLQTDDTAMYYCVRKGITTTGFDYWGQGTTLTVSS
VL: HIVLTQSPAIMSASPGEKVTMTCSASSSVSYMYWYQQKPRSSPRLLIYDTSNLASGVPVRFSGSGSGTSYSLTISRMEADDAATYYCQQLSSYPPTFGGGTKLELKR
notes: as for B1
B4: antibody 5038 (antibody, human IgG1, kappa, V domains shown)
VH: EVKLVESGPGLVKPSQSLSLTCSVTGYSITSGFYWTWIRQFPGNKLEWMGFISYDGSNNYNPSLKNRISITRDTSKNQFFLKLNSVTTEDTATYYCARGGGYYGNLFDYWGQGTTLTVSS
VL: DIVMTQTTSSLSASLGDRVTISCRPSQDISNYVNWFQQKPGGTVKLLIFHTSRLHSGVPSRFSGSGSGTDYSLTISTLEQEDIAIYFCQQGITLPWTFGGGTKLEIKR
notes: as for B1
B5: antibody 5106 (antibody, human IgG1, kappa, V domains shown)
VH: EVKLVESGGDLVKPGESLKLSCAASGFTFSSFAMSWVRQTPEKRLEWVATISDGGSHLYYPDNVKGRFTISRDNAKNNLYLQMSHLKSEDTAMYYCARGILDYWGQGTSVTVSS
VL: DIVMTQATSSLSASLGDRVTISCSASQDINNYLNWYQQKPDGTIKLLIYYTSSLHSGVPSRFSGSGSGTDYSLTISNLEPEDIATYYCQQYSRIPYTFGGGTKLEIKR
notes: as for B1
B6: antibody 5101 (antibody, human IgG1, kappa, V domains shown)
VH: EVKLVESGGGLVKPGGSLKLSCAASGFTFSSYGMSWVRQTPEKRLEWVATIRDGGGYTYYSDNVKGRFTISRDNAQNNLYLQMSHLKSEDTAMYYCARGILDYWGQGTSVTVSS
VL: QIVLTQSPSSLSASLGDRVTISCRASQDISNYLNWFQQRPDGTVKLLIYYTSRLHSGVPSRFSGSGSGTDYSLTISNLEQEDIATYFCQQGNTLPYTFGGGTKLELKR
notes: as for B1
B7: antibody 4785 (antibody, human IgG1, kappa, V domains shown)
VH: EVQLQQSGPELVMPGASVKISCKASGYSFTSYYVHWVKQRPGQGLEWIGWIYPGSGHTKYNEKFKDKATLTADTSSSTAYMQLSSLTSEDSAVYYCARPPYYSNYADVWGTGTTVTVSS
VL: DIVMTQSPSSLTVTAGEKVTMSCKSSQSLLNSGNQKNYLTWYQQKPGQPPKLLIYWASTRESGVPDRFTGSGSGTDFTLTISSVQAEDLAVYYCQSDYSYPYTFGGGTKLEIKR
notes: as for B1
B8: antibody 5143 (antibody, human IgG1, kappa, V domains shown)
VH: QVQLQQSGPELVKPGASVKISCKASGYSFTSYYIHWVKQRPGQGLEWIGWIYPGSGHTKYNEKFKGKATLTADTSSSTAYMQLSSLTSEDSAVYYCARPPYYSNYADVWGTGTTVTVSS
VL: DIVMTQSPSSLTVTAGEKVTMSCKSSQSLLNSGNQKNYMTWYQQKPGQSPKLLIYWASTRESGVPDRFTGSGSGTDFTLTISSVQAEDLAVYYCQNDYSYPYTFGGGTKLELKR
notes: as for B1
B9: antibody 4889 (antibody, human IgG1, kappa, V domains shown)
VH: EVQLVESGPGLVKPSQSLSLTCSVTGYSITSAYYWNWIRQFPGNKLEWMGYVSYDGSNTYNPSLKNRISITRDTSKNQFFLKLISLTTEDTATYYCAREGDYGYSDYWGQGTTLTVSS
VL: DIVMTQSTSSLSASLGDRVTVSCRASQDISNYLNWYQQKPDGTIKLLIYYTSRLHSGVPSRFSGSGSGTDYSLTISNLDQEDIATYFCQQSNTLPWTFGGGTKLEIKR
notes: as for B1
B10: antibody 5082 (antibody, human IgG1, kappa, V domains shown)
VH: EVQLKESGPGLVKPSQSLSLTCSVTGYSITSAYYWNWIRQFPGNKVEWMGYIGYDGRNTYNPSLKNRISITRDTSKNQFFLKLNSLTTEDTATYYCSREGDYGYSDYWGQGTTLTVSS
VL: DIVMTQATSSLSASLGDRVTVSCRASQDINNYLNWYQQKPDGTVKLLIYYTSRLQSGVPSRFSGSGSGIDYSLTISNLEQEDFVTYFCQQSETLPWTFGGGTKLELKR
notes: Chimeric: murine variable regions, human IGHG1 and kappa constant regions; also called mAb 5082

Legend:
human HER3 receptor = target: T1, human HER3 receptor (human, UniProt P21860 20-643); assay: method not named there (Example 1: HER3 ELISA and confocal microscopy on MCF-7 cells)
T1 construct: also called ErbB3
T1 sequence (P21860 20-643 limits assumed): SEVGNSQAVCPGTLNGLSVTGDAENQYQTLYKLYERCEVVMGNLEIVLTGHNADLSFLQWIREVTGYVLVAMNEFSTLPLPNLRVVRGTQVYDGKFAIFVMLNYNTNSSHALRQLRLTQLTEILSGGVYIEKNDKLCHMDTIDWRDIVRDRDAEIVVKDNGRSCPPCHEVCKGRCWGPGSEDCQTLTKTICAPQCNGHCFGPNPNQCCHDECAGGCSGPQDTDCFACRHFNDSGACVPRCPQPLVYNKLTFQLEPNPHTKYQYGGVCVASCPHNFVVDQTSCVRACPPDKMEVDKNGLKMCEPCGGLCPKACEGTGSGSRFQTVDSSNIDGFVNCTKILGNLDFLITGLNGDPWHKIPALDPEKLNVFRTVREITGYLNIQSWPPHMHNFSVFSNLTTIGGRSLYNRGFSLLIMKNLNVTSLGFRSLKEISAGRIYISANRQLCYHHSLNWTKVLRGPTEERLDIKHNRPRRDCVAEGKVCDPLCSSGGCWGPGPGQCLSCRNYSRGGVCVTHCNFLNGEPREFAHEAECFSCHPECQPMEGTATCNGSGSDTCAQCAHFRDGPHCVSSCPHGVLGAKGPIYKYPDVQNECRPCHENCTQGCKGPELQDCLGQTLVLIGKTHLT
Description: Briefly, Nunc Maxisorb plates (cat.#464718) were coated with 1 μg/ml HER3 protein (R&D Systems cat.#348-RB), diluted in PBS at 4° C. overnight. Prior to blocking in 50 μl 2% milk-PBS+0.05% Tween 20 the plates were washed once with PBS-T. The plates were washed once with PBS-T and 20 μl of 2% milk-PBS-T, and 10 μl supernatants from FreeStyle293 transfectants were added and incubated for 1 hour at room temperature, after which the plates were washed once with PBS-T, 20 μl per well. Secondary antibody (HRP-Goat-anti-human kappa light chain, Serotec, cat.# STAR 100P) diluted 1:25000 in 2% milk-PBS-T was added to detect the antibodies bound to the wells and incubated for 1 hour at room temperature. The plates were washed once in PBS-T before addition of 25 μl substrate (Kem-En-Tec Diagnostics, cat.#4518) that was incubated for 5 min. 25 μl 1M sulphuric acid was added after the incubation to stop the reaction. Specific signal was detected on an ELISA reader at 450 nm. From the ELISA data 480 positive antibody clones were identified and selected for sequence analysis and validation of binding to HER3.
The 119 clones were screened for binding to the HER3-overexpressing breast cancer cell line (MCF-7) using confocal microscopy. 10,000 MCF-7 cells were seeded into each well of 384-well cell carrier plates (Perkin Elmer, cat.#6007439) and allowed to attach overnight. The media was again discarded and the cells were washed and fixed with 2% formaldehyde solution (Aldrich cat.#533998). After washing, 40 μl of antibody supernatant was transferred to each well and plates were incubated for 2 hours, after which the media in the wells was discarded and 30 μl new media containing 2 μg/ml of Alexa-488 labelled goat anti-human IgG (H+L, Invitrogen cat.# A11013), 2 μg/ml CellMask Blue (Invitrogen cat.# H34558) and 1 μM Hoechst 33342 (Invitrogen cat.# H3570) was added to each well and plates were incubated for another 30 minutes. The level of fluorescence was then measured using an OPERA high throughput confocal microscope (Perkin Elmer).

[1] = target: T2, fully human HER3 ECD construct with N-terminal histidine tag (human, UniProt P21860 20-643); assay: ELISA on coated His-tagged HER3 ECD constructs
T2 construct: extracellular domain; Transiently expressed in Hek 293 cells, purified on nickel NTA; also called fully human ECD construct
T2 sequence (P21860 20-643): as the sequence (P21860 20-643 limits assumed) above
Excerpt: Because the anti-HER3 antibody panel was raised in mice, antibodies are not expected to recognize epitopes present on murine HER3 due to the concept of “self tolerance”. Consequently, chimeric receptor constructs in which the human sequences coding for individual domains are replaced by murine sequences can be employed for epitope mapping purposes, since the antibodies are not expected to bind the murines sequence inserted in the human HER3 construct. Human and murine HER3 mRNA sequences (accession number M29366 and NM_{—}010153.1 respectively) were downloaded from NCBI, and extracellular domains I-IV were assigned as described by Kani et al. (J. Biol. Chem. (2005) 280:8238-8247). Chimeric human/murine domain exchange variants, in which each of the four human extracellular HER3 domains were replaced by the respective murine DNA sequence, were provided with an N-terminal histidine tag, gene synthesized and transiently expressed in Hek 293 cells. A fully human and a murine ECD construct were used as positive and negative controls, respectively. […] The next day wells were blocked with 1% BSA/PBS-T and titrations of antibodies diluted in blocking buffer were added. […]
The domain mapping of anti-HER3 antibodies is shown in FIGS. 27-32, which is a titration of anti-HER3 antibodies and negative controls against coated HER3 antigens. Bound antibody was detected with an anti-human Fc antibody. […]

Row | Binder | binding result (human HER3 receptor) | binding result [1]
1 | B1 | binds | –
2 | B2 | binds | –
3 | B3 | binds | –
4 | B4 | binds | –
5 | B5 | binds | binds
6 | B6 | binds | binds
7 | B7 | binds | –
8 | B8 | binds | –
9 | B9 | binds | –
10 | B10 | binds | –

Source: US20130287684A1 (SYMPHOGEN A S, published 2013)
